Measurements published in patent US20240189352A1 (MAX DELBR CK CENTRUM F R MOLEKULARE MEDIZIN IN DER …, published 2024).
One block for each binder: values may come before it.

Key:
[1] = biological target: wild-type RAC1/2 peptide presented by HLA-A2 (peptide-loaded T2 cells) (human); test: cell-based or functional assay
[2] = biological target: HLA-A2-restricted GNAZ peptide … presented by HLA-A2 (human); test: cell-based or functional assay

IFNγ production by TCR-transduced T cells (relative to unmodified RAC2^P29L) [1]: 35%
B1: RAC2-T002 TCR (TCR, V domains shown)
V domain 1: AQSVTQLGSHVSVSEGALVLLRCNYSSSVPPYLFWYVQYPNQGLQLLLKYTTGATLVKGINGFEAEFKKSETSFHLTKPSAHMSDAAEYFCAVGANNLFFGTGTRLTVIP
V domain 2: EPEVTQTPSHQVTQMGQEVILRCVPISNHLYFYWYRQILGQKVEFLVSFYNNEISEKSEIFDDQFSVERPDGSNFTLKIRSTKLEDSAMYFCASSEWRGSSYNEQFFGPGTRLTVL

IFNγ production of T001 TCR-transduced T cells upon coculture with peptide-loaded T2 cells (relative to PMA and ionomycin maximum) [2]: ~30%
B2: RAC2-T001 TCR (TCR, V domains shown)
V domain 1: GENVEQHPSTLSVQEGDSAVIKCTYSDSASNYFPWYKQELGKGPQLIIDIRSNVGEKKDQRIAVTLNKTAKHFSLHITETQPEDSAVYFCAASMGNAGNMLTFGGGTRLMVKP
V domain 2: EPEVTQTPSHQVTQMGQEVILRCVPISNHLYFYWYRQILGQKVEFLVSFYNNEISEKSEIFDDQFSVERPDGSNFTLKIRSTKLEDSAMYFCASSETSGASYEQYFGPGTRLTVT
